Patent US6875743B1, “Cell adhesion inhibitors” (Biogen, Inc., priority 1996, dated 2005)
Square brackets hold non-standard residues; d marks the D form. Peptide text beside a SMILES is read from it. * marks the point of attachment. 2‑MPUPA = 4-(N′-(2-methylphenyl)urea)phenylacetyl, Cc1ccccc1NC(=O)Nc1ccc(CC(=O)*)cc1; Quinaldoyl = O=C(c1ccc2ccccc2n1)*; Tic = O=C(O)[CH]1Cc2ccccc2CN1; Boc = CC(C)(C)OC(=O)*; Bz = O=C(c1ccccc1)*; Ahx = NCCCCCC(=O)O

B1: Compound 167 (peptide)
peptide: Boc-LDVM-OMe
SMILES: COC(=O)[C@H](CCSC)NC(=O)[C@@H](NC(=O)[C@H](CC(=O)O)NC(=O)[C@H](CC(C)C)NC(=O)OC(C)(C)C)C(C)C
B2: Compound 168 (peptide)
peptide: Quinaldoyl-LDVM-OMe
SMILES: COC(=O)[C@H](CCSC)NC(=O)[C@@H](NC(=O)[C@H](CC(=O)O)NC(=O)[C@H](CC(C)C)NC(=O)c1ccc2ccccc2n1)C(C)C
B3: Compound 186 (peptide)
peptide: Quinaldoyl-LDVM-OH
SMILES: CSCC[C@H](NC(=O)[C@@H](NC(=O)[C@H](CC(=O)O)NC(=O)[C@H](CC(C)C)NC(=O)c1ccc2ccccc2n1)C(C)C)C(=O)O
B4: Compound 202 (peptide)
peptide: {2‑MPUPA}-K(Ahx)DVP-OH
SMILES: Cc1ccccc1NC(=O)Nc1ccc(CC(=O)N[C@@H](CCCCNC(=O)CCCCCN)C(=O)N[C@@H](CC(=O)O)C(=O)N[C@H](C(=O)N2CCC[C@H]2C(=O)O)C(C)C)cc1
B5: Compound 315 (peptide)
peptide: {2‑MPUPA}-MDVP-OH
SMILES: CSCC[C@H](NC(=O)Cc1ccc(NC(=O)Nc2ccccc2C)cc1)C(=O)N[C@@H](CC(=O)O)C(=O)N[C@H](C(=O)N1CCC[C@H]1C(=O)O)C(C)C
B6: Compound 153 (peptide)
peptide: Bz-FLDV-OH
SMILES: CC(C)C[C@H](NC(=O)[C@H](Cc1ccccc1)NC(=O)c1ccccc1)C(=O)N[C@@H](CC(=O)O)C(=O)N[C@H](C(=O)O)C(C)C
B7: Compound 338 (peptide)
peptide: {2‑MPUPA}-LDVPST-OH
SMILES: Cc1ccccc1NC(=O)Nc1ccc(CC(=O)N[C@@H](CC(C)C)C(=O)N[C@@H](CC(=O)O)C(=O)N[C@H](C(=O)N2CCC[C@H]2C(=O)N[C@@H](CO)C(=O)N[C@H](C(=O)O)[C@@H](C)O)C(C)C)cc1
B8: Compound 339 (peptide)
peptide: {2‑MPUPA}-VLPD-OH
SMILES: Cc1ccccc1NC(=O)Nc1ccc(CC(=O)N[C@H](C(=O)N[C@@H](CC(C)C)C(=O)N2CCC[C@H]2C(=O)N[C@@H](CC(=O)O)C(=O)O)C(C)C)cc1
B9: Compound 341 (peptide)
peptide: {2‑MPUPA}-LPVD-OH
SMILES: Cc1ccccc1NC(=O)Nc1ccc(CC(=O)N[C@@H](CC(C)C)C(=O)N2CCC[C@H]2C(=O)N[C@H](C(=O)N[C@@H](CC(=O)O)C(=O)O)C(C)C)cc1

Molecular target: T1, α4β1 integrin, very late antigen-4 (VLA-4) (UniProt P13612 34-1032; P05556 21-798, limits assumed)
T1 construct: whole, on cells; also called CD49d/CD29
Test: inhibition of Ramos cell adhesion to BSA-CS1
Details: not given
Procedure: Following labelling, the cells were washed twice in assay buffer (24 mM TRIS, 137 mM NaCl, 2.7 mM KCl, pH 7.4, containing 0.1% BSA and 2 mM glucose) to remove any cations originating from the culture medium. The cells were then resuspended in assay buffer to 4×10⁶ cells/mL and 2 mM MnCl_2 was added to upregulate VLA4 on the surface of the cells.
Immediately prior to running the assay, we removed the BSA blocking solution from the 96-well plates and washed the wells with 100 μL of assay buffer. We then added to each well 25 μL of test cell adhesion inhibitory compound at 2× the final concentration and 25 μL of the labelled Ramos cells. […] Each concentration of compound was tested in triplicate. The compound and cells are allowed to incubate for 30 minutes at room temperature.
Percent binding is calculated by the formula: […]

T1 sequence (P13612 34-1032 limits assumed, chain 1 of 2): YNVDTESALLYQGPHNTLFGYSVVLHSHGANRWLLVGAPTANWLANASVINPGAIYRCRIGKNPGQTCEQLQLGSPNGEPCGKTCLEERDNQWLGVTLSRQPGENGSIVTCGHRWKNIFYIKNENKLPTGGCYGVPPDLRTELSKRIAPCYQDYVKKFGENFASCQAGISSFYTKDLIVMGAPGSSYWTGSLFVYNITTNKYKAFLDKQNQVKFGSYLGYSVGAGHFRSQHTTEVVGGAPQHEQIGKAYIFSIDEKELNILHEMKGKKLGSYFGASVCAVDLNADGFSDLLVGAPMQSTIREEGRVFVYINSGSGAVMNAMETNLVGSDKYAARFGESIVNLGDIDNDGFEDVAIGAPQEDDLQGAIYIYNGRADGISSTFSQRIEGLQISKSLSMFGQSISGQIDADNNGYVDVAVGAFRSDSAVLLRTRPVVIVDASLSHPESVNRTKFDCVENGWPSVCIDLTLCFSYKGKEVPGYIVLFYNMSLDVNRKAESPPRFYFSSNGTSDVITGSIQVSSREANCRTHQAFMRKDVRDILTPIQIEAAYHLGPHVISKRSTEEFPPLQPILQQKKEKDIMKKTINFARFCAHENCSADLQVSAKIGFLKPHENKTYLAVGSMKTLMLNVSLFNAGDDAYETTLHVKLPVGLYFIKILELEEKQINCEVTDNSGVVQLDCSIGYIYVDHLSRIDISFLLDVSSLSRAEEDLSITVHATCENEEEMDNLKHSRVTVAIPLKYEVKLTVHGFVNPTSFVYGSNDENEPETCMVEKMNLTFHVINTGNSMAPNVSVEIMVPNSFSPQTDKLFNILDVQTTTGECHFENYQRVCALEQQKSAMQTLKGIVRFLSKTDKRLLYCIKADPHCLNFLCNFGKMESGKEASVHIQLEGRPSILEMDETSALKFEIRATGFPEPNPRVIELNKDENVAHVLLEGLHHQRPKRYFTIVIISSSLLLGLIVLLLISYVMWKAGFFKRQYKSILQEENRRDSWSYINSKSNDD
T1 sequence (P05556 21-798 limits assumed, chain 2 of 2): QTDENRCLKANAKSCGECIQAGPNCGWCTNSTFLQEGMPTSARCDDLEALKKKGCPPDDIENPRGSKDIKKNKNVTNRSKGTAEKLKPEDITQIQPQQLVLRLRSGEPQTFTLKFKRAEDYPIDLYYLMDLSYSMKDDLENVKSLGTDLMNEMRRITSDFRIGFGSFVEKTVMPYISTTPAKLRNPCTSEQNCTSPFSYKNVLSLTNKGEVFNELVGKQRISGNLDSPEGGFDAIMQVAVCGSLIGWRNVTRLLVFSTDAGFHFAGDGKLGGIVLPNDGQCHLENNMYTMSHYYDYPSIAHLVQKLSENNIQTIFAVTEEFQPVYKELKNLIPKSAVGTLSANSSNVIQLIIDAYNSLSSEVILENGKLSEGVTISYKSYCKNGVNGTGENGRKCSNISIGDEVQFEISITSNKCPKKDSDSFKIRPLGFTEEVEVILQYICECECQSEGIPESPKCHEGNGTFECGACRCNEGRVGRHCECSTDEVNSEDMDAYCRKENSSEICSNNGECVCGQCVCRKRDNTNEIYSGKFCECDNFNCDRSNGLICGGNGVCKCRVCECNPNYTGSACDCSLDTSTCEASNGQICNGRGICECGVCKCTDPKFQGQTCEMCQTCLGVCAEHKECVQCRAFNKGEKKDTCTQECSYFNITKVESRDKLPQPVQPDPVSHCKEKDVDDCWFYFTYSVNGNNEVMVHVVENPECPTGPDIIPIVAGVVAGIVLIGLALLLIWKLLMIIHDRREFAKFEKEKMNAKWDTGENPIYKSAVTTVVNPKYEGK

| Molecule | IC50 [µM] |
| --- | --- |
| {3‑methoxy‑4‑(N'-phenylurea)phenylacetyl}-MDVP-OH [Compound 2] | < 0.05 |
| {4‑(N'-2-hydroxyphenylurea)phenylacetyl}-MDVP-OH [Compound 146] | < 0.05 |
| B1 | > 10 |
| B2 | 0.05 to 10 |
| B3 | > 10 |
| B4 | 0.05 to 10 |
| B5 | < 0.05 |
| Ac-FLDV-OH [Compound 152] | > 10 |
| B6 | > 10 |
| {2‑MPUPA}-LDVPS-OH [Compound 337] | < 0.05 |
| B7 | < 0.05 |
| B8 | > 10 |
| B9 | > 10 |

Molecular target: T2, VLA4 (Homo sapiens, UniProt P05556+P13612)
T2 construct: endogenous in cells; host or cells: Ramos cells
Test: Inhibition of VLA4-dependent adhesion to BSA-CS1
Format: cell-based
Details: binding of BCECF-labelled Ramos cells to BSA-CS1 coated wells, 2 mM MnCl2; read-out: IC50

T2 sequence (P13612 34-1032): as the sequence (P13612 34-1032 limits assumed, chain 1 of 2) above
T2 sequence (P05556 21-798): as the sequence (P05556 21-798 limits assumed, chain 2 of 2) above

| Molecule | IC50 [µM] |
| --- | --- |
| CC(C)C[C@H](NC(=O)c1cccnc1Sc1ccccc1)C(=O)N[C@@H](CC(=O)O)C(=O)N[C@H](C(=O)O)C(C)C [Compound 373] | > 10 |
| Cc1ccccc1NC(=O)Nc1ccc(CC(=O)N2CCC[C@H]2C(=O)N[C@@H](CC(=O)O)C(=O)N[C@@H](CC(C)C)C(N)=O)cc1 [Compound 242] | < 0.05 |
| CC(C)CC(NC(=O)C1Cc2ccccc2CN1)C(=O)NC(CC(=O)O)C(=O)NC(C(=O)N1CCCC1C(=O)O)C(C)C (stereo not drawn) [Compound 33] (H-[Tic]LDVP-OH; configuration not given here) | > 10 |
| CC(C)C[C@H](NC(=O)c1csc(-c2ccncc2)n1)C(=O)N[C@@H](CC(=O)O)C(=O)N[C@H](C(=O)O)C(C)C [Compound 376] | > 10 |
| Cc1ccccc1NC(=O)Nc1ccc(CC(=O)N2CCC[C@H]2C(=O)N[C@@H](CC(=O)O)C(=O)N[C@@H](CC(=O)O)C(N)=O)cc1 [Compound 241] | < 0.05 |
